The target of data set [1] is T1, duck Na,K-ATPase (Anas platyrhynchos, UniProt Q7ZYV1). Type of data set: binding. Particulars: 25 °C, pH 7.5, unit not given. The protocol:
(§1) Purified preparation of Na,K-ATPase was obtained from duck salt glands as described elsewhere.
(§2) Experiments were carried out at 25 °C in four buffers, as described elsewhere: (E2P buffer) 10 mM imidazole, 3 mMTris/Pi, 1 mM EDTA, 3 mM MgCl2, 0.1 mM DTT, pH 7.5; (E1/E2 buffer) 10 mM imidazole, 130 mM NaCl, 20 mM KCl, 3 mM MgCl2, 0.1 mM DTT, pH 7.5; (E1 buffer) 10 mM imidazole, 1 mM EDTA, 3 mM NaCl, 0.1 mM DTT, pH 7.5; (E2 buffer) 10 mM imidazole, 1 mM EDTA, 3 mM KCl, and 0.1 mM DTT, pH 7,5. […] Aliquots (2.6 μL) of ligands were injected into a 0.24 mL cell containing the protein solution to achieve a complete binding isotherm. […] Equivalent amounts of DMSO was added to protein solutions to avoid thermal effects of dissolution.
(§3) The effective heat of binding was obtained by subtracting the heat of dilution from the heat of reaction. MicroCal Origin software was used to fit isothermal titration curves. […] The Gibbs energy and enthalpy changes […] were estimated according to the equations: ∆G = −RT lnKa and ∆G = ∆H − T∆S.

Data set [2] deals with Na,K-ATPase. Set-up: method as in 2 sources, one per row (each row's own in cited_ref): ref [10],[18] = [10]; PMID 30210292; doi:10.3389/fnmol.2018.00302; 10. Barykin E.P. Petrushanko I.Y. Kozin S.A. Telegin G.B. Chernov A.S. Lopina O.D. Radko S.P. Mitkevich V.A. Makarov A.A. Phosphorylation of the Amyloid-Beta Peptide Inhibits Zinc-Dependent Aggregatio || [18]; PMID 27296892; doi:10.1038/srep27738; 18. Petrushanko I.Y. Mitkevich V.A. Anashkina A.A. Adzhubei A.A. Burnysheva K.M. Lakunina V.A. Kamanina Y.V. Dergousova E.A. Lopina O.D. Ogunshola O.O. Direct Interaction of Beta-Amyloid with Na,K-ATP ||| ref [39] = [39]; PMID 26297827; doi:10.1016/j.febslet.2015.08.011; 39. Klimanova E.A. Petrushanko I.Y. Mitkevich V.A. Anashkina A.A. Orlov S.N. Makarov A.A. Lopina O.D. Binding of Ouabain and Marinobufagenin Leads to Different Structural Changes in Na,K-ATPase and De. Particulars: ref [39]; cited from earlier work.

Data set [3] concerns neuroblastoma cells SH-SY5Y. The note with it: ref [18]; cited from earlier work. The source says:
(§4) Here we study the binding interface of Aβ with Na,K-ATPase. Na,K-ATPase creates a sodium/potassium gradient, and inhibition of pump activity by Aβ leads to impairment of electrotonic properties of neurons.

The test system of data set [4] is Na,K-ATPase. The note with it: ref [18]; cited from earlier work.
From the text: as §4

The conditions of data set [5]: hexafluoroisopropanol, dried, DMSO for 1 h, diluted in buffer; ref [18]; cited from earlier work. The protocol:
Aβ42 peptide was synthesized by Biopeptide. […] Briefly, the peptide was dissolved in hexafluoroisopropanol (Fluka), dried, and stored at −80 °C. Before the experiment, the peptide was dissolved in DMSO for 1 h and then diluted in the buffer solution.

Data set [6] addresses T1, duck Na,K-ATPase. Description: Isothermal titration calorimetry (MicroCal iTC200), Aβ42 binding to Na,K-ATPase in different states. Particulars: 25 °C; for T∆S, entropy variation: calculated from ∆G = ∆H − T∆S; for ∆H, enthalpy variation: three to four measurements, SD did not exceed ±10%. On the procedure: Briefly, the peptide was dissolved in hexafluoroisopropanol (Fluka), dried, and stored at −80 °C. Before the experiment, the peptide was dissolved in DMSO for 1 h and then diluted in the buffer solution.
as §1, §2, §3

[7] abbreviates: Na,K-ATPase in complex with Aβ42.
[8] abbreviates: enzyme in E2P conformation (without Aβ42).
Setting [9] is: OBN state (26 µM ouabain), pH 7.5.

“Also recorded” adds a separate entry of the source. Like-named read-outs stand apart in the source and are kept apart here.

Regarding `C[C@@H]1O[C@@H](O[C@H]2C[C@@H](O)[C@]3(CO)[C@H]4[C@H](O)C[C@]5(C)[C@@H](C6=CC(=O)OC6)CC[C@]5(O)[C@@H]4CC[C@]3(O)C2)[C@H](O)[C@H](O)[C@H]1O` [ouabain], in data set [1] (setting [7]), the “T∆S” value is recorded as −10.8 and the “∆H” value is −20.2 ± 0.7. In data set [1] (setting [8]), the “T∆S” value is −4.2 and the “∆H” value is on record as −13.7 ± 0.2. In data set [2], the “Na,K-ATPase conformation bound” value was “binds predominantly to the E2P conformation”.
For the compound “Aβ42: Aβ42 peptide was synthesized by Biopeptide”, in data set [3], the “effect of exogenous Aβ42 on enzyme transport and hydrolytic activity” value is “pronounced decrease in enzyme transport and hydrolytic activity”. In data set [4], the “effect of complex formation on enzyme hydrolytic activity” value was “dose-dependent inhibition of enzyme hydrolytic activity”. In data set [5], the “form present in the solution” value is given as “mainly in the monomeric form”. For the same compound, the “T∆S, entropy variation” value is listed as 5.48 kcal/mol in data set [6] (E1/E2 state, pH 7.5); 6.02 kcal/mol in data set [6] (E1 state, pH 7.5); 6.19 kcal/mol in data set [6] (E2P state, pH 7.5); 5.55 kcal/mol in data set [6] (E2 state, pH 7.5); 6.87 kcal/mol in data set [6] (setting [9]). Also, the “∆H, enthalpy variation” value in data set [6] (E1/E2 state, pH 7.5) was -2.54 kcal/mol; in data set [6] (E1 state, pH 7.5), -1.54 kcal/mol; in data set [6] (E2P state, pH 7.5) it was -1.59 kcal/mol; in data set [6] (E2 state, pH 7.5), -2.21 kcal/mol; in data set [6] (setting [9]), -1.21 kcal/mol. Besides, the “Ka, affinity constant” value in data set [6] (E2 state, 10 mM imidazole, 1 mM EDTA, 3 mM KCl, 0.1 mM DTT, pH 7.5, measured three to four times, SD did not exceed ±20%) amounted to 490000 M⁻¹. Also, the “Aβ42 binding to Na,K-ATPase in complex with ouabain compared with free enzyme” value in data set [6] (OBN state, sequential titration with ouabain then Aβ42 in E2P buffer) is reported as “in the same way as the free enzyme; also recorded: did not change”.

The values above are taken from PMC9313104 (Biomedicines, 2022).
